# Residue numbers refer to the chain shown, from its start.
# T1: NUCKS1, dephosphorylated (UniProt Q9H1E3 1-243)
# T1 sequence: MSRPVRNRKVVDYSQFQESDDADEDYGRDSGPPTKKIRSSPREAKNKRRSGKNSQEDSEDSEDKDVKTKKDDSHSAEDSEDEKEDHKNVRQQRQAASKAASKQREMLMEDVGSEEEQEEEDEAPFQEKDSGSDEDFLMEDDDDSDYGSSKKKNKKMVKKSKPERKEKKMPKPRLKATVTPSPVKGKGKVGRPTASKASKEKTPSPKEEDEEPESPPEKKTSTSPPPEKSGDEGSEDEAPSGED
# B1: SKP2 promoter WT probe (dsDNA)
# DNA 1: GCCGACCAGTCCCGCTCCCGCGGGGGGTTGTGGGTATCTCGAAGGCGGGTAAAGCTGCA
# DNA 2: TGCAGCTTTACCCGCCTTCGAGATACCCACAACCCCCCGCGGGAGCGGGACTGGTCGGC
# B2: SKP2 promoter mutant probe (no GC-box), unlabelled competitor (dsDNA)
# DNA 1: B1 DNA 1 with G44A, G45A, C46A, G47A, G48A, G49A
# DNA 2: B1 DNA 2 with C11T, C12T, C13T, G14T, C15T, C16T
# Assays:
# NUCKS1, dephosphorylated [1] = biological target: T1, NUCKS1, dephosphorylated; assay: EMSA; lambda phosphatase treated; 10.24-2500 nM protein, 25 nM probe; text: almost 10-fold; 20 mM Tris-HCl pH 7.5, 100 mM KCl, 0.2% NP-40, 20% glycerol, 2 mM DTT, 50 ng (pure protein) or 1 ug (extract) salmon sperm DNA, 25 nM probe, 15 min at 37 C; native 6% PAGE; conditions: protein: recombinant; tags: His6; label: IRDye-800; blunt
# NUCKS1, dephosphorylated [2] = biological target: T1, NUCKS1, dephosphorylated; assay: competition EMSA; 100x unlabelled competitor against labelled WT probe; not outcompeted; 20 mM Tris-HCl pH 7.5, 100 mM KCl, 0.2% NP-40, 20% glycerol, 2 mM DTT, 50 ng (pure protein) or 1 ug (extract) salmon sperm DNA, 25 nM probe, 15 min at 37 C; native 6% PAGE; conditions: protein: recombinant; tags: His6; blunt
Binder,"binding signal (NUCKS1, dephosphorylated [1])","binding result (NUCKS1, dephosphorylated [2])"
B1,~10 fold higher affinity than phosphorylated NUCKS1,–
B2,–,no binding

# — publication PMC8630071, “The NUCKS1-SKP2-p21/p27 axis controls S phase entry”
